Test results as given in publication PMC2120799.

Biological target: cdk2 (NIH-3T3 cells) (mouse (endogenous in NIH-3T3)) (UniProt P97377)
Experiment: co-IP

Row | Substance | stoichiometry N (mol per mol cdk2)
1 | p21 (NIH-3T3 cells) (from UniProt P39689 1-159) (natural protein) | < 1
2 | p27 (NIH-3T3 cells) (from UniProt P46414 1-197) (natural protein) | < 1
